Earlier results, collected in article PMC5075297.
pKd: −log10 of the molar value.

Legend:
[1] = target: cellular fibronectin (Homo sapiens) (UniProt P02751)
[2] = target: type I collagen (Homo sapiens) (UniProt P02452)
[3] = target: tropoelastin (Homo sapiens) (UniProt P15502)

UniProt P02452, sequence (P02452 162-1218, chain 1 of 2): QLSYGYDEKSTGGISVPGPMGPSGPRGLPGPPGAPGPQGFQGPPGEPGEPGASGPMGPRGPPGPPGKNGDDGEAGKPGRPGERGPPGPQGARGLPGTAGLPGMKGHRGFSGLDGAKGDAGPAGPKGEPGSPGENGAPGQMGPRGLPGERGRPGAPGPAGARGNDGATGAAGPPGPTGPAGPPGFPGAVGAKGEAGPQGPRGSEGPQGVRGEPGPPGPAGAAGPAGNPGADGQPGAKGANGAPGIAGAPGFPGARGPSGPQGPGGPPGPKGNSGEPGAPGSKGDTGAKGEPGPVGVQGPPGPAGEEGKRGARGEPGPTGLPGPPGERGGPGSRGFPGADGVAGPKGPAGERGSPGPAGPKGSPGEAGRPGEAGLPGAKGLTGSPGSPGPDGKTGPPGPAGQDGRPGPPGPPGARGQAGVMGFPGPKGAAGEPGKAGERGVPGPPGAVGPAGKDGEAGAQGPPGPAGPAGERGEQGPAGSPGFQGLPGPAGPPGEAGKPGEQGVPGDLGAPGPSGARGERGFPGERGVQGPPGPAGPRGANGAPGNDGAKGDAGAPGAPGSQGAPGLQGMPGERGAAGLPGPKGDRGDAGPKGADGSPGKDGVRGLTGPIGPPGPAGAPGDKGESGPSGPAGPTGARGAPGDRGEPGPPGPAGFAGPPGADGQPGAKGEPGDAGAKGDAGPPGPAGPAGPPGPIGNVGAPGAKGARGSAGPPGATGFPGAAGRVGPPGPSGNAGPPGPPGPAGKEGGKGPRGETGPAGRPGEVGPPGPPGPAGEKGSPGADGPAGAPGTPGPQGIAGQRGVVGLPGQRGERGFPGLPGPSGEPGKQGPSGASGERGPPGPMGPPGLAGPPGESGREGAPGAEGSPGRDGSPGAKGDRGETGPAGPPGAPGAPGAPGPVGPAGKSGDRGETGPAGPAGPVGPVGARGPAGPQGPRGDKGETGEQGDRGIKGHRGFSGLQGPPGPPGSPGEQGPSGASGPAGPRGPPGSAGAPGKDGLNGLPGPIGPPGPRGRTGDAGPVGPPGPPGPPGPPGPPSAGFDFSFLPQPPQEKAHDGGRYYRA
UniProt P02452, sequence (P08123 80-1119, chain 2 of 2, further chain): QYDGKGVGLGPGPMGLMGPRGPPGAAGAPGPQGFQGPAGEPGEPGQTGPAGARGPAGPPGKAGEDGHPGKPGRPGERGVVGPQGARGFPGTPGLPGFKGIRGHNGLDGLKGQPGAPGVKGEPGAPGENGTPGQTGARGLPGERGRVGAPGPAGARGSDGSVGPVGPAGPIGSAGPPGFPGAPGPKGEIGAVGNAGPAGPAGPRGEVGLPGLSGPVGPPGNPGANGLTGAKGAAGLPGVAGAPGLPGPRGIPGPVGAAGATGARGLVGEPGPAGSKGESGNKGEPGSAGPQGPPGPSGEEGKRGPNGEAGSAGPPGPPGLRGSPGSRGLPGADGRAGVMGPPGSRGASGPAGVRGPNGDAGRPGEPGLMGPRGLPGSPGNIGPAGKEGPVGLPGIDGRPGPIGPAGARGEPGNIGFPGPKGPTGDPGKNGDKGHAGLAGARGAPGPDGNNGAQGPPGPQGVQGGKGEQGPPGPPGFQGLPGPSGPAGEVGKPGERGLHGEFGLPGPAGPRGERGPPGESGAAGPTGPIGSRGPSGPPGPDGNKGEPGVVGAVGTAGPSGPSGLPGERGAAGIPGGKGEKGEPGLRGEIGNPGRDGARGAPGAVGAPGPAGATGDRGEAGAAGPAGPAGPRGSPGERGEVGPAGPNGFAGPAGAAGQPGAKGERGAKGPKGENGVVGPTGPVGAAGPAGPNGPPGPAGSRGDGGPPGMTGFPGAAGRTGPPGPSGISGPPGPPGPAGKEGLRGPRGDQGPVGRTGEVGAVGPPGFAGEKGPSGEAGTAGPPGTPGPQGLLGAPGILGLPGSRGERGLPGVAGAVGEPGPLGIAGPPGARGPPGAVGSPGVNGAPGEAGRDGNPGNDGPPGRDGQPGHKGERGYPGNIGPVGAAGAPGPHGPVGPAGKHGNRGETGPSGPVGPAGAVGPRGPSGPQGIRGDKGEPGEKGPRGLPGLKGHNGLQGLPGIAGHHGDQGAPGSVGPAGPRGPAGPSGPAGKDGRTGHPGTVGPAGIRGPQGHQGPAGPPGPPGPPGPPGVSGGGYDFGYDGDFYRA
UniProt P02751, sequence (P02751 32-2477): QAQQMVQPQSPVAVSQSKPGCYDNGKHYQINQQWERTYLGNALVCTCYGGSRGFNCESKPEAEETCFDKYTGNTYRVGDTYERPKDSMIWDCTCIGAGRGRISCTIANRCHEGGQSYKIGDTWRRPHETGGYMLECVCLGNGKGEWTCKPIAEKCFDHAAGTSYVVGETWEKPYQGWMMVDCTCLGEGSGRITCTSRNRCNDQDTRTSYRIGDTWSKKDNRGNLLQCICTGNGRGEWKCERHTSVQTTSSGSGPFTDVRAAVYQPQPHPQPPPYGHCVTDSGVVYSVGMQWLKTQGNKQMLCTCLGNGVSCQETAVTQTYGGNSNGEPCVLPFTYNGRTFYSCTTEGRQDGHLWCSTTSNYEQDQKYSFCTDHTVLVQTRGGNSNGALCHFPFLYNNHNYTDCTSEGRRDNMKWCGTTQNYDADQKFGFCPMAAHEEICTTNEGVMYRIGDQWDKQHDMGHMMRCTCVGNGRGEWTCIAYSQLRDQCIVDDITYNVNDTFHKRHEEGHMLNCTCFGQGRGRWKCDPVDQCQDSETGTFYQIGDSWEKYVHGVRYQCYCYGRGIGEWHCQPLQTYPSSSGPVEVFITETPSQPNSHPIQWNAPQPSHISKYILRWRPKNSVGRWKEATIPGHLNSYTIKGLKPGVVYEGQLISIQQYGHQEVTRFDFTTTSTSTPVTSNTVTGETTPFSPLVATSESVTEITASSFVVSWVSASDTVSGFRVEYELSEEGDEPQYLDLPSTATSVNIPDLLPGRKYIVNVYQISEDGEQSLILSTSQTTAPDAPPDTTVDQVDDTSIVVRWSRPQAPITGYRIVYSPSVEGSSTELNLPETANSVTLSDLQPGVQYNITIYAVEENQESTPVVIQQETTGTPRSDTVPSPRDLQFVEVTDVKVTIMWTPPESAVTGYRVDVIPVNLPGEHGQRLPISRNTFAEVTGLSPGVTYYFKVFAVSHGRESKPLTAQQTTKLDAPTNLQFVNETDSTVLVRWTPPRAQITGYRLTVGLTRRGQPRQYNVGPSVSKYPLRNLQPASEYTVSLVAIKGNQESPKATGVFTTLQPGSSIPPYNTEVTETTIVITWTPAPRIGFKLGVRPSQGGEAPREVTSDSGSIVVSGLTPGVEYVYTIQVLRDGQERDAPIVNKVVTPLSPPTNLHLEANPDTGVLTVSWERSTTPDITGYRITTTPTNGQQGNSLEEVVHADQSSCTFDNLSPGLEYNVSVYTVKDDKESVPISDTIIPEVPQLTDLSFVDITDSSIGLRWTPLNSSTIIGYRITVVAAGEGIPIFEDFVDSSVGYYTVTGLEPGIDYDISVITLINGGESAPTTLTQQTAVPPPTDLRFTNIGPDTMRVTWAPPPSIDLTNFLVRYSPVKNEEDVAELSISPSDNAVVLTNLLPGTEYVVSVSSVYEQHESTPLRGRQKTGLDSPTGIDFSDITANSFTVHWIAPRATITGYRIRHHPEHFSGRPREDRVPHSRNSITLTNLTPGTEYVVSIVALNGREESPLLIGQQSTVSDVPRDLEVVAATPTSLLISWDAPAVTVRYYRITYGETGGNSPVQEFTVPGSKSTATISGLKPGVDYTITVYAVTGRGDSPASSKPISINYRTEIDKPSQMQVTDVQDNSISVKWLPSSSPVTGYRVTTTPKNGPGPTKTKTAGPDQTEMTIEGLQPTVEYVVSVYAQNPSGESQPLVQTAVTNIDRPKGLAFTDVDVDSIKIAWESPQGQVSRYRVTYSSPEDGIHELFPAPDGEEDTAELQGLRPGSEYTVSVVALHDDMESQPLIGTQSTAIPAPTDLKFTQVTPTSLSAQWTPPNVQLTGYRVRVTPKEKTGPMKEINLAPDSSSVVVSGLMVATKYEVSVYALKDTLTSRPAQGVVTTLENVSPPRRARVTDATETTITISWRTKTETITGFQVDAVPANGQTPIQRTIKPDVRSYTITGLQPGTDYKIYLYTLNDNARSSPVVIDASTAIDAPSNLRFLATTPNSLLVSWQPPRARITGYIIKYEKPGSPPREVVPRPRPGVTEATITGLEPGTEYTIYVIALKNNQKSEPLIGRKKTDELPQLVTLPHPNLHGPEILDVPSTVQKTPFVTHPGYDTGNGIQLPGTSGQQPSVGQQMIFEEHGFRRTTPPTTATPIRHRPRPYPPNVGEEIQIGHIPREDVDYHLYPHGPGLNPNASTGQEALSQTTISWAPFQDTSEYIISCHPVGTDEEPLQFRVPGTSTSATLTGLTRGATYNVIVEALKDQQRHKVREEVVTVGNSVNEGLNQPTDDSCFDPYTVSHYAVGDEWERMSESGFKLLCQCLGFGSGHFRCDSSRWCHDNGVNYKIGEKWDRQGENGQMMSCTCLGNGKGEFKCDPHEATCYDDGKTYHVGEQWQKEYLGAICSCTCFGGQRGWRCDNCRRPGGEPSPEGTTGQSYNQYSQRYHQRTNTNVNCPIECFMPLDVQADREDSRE

In the case of LOX (from UniProt P28300), the pKd [1] is given as 8.60, the pKd [2] is given as 8.28 and the pKd [3] is given as 8.72.
